The target of test [1] is T1, streptavidin (UniProt P22629 37-163, limits assumed).
T1 construct: It was used without a stated label in the sandwich assays; also called SA
In words: fluorescent binding curve, labeled SA in 50% blood serum, 4 h. The procedure:
(§1) The binding function of rcSso7d.SA oligomer-PNIPAM thin films was measured using fluorescently-labeled monomeric streptavidin (mSA2) and fluorescently-labeled streptavidin (SA). Details for the expression, purification, and fluorescent labeling of mSA2 are provided below. Samples were prepared by serial dilution of SA or mSA2 in PBS (pH 7.4), human urine (diluted to 50% v/v in PBS, pH 7.4), or blood serum (obtained as the supernatant by centrifuging whole blood at 1500×g for 10 minutes, then diluted to 50% v/v in PBS, pH 7.4). 0.5 μL drops of solutions containing serially diluted fluorescent mSA2 and fluorescent SA samples in PBS (pH 7.4) were gently applied to the surface of each bioconjugate thin film. […] Fluorescence microscopy images were acquired at 4× magnification using a Cy5 filter set and exposure time of 5000 ms on an Olympus IX-81 inverted fluorescence microscope with an AxioCam HRC CCD camera. Fluorescent intensity was calculated using ImageJ software⁶⁷ by determining the average fluorescent signal in a rectangular area of the fluorescent image free of defects and occupying no less than half of the full sample application area.
(§2) To evaluate how the apparent size-based diffusion properties translated to biosensing capabilities, binding curves were measured using SA and mSA2 solutions in buffer. […]

Test [2] has as its target T1, streptavidin. The test is described as follows: fluorescent binding curve fits, labeled SA in PBS, 30 min exposure. The procedure:
as §1, §2

The target in test [3] is T1, streptavidin. The test is described as follows: fluorescent binding curve, labeled SA in 50% urine, 4 h; quadratic fit.
The target in test [4] is monomeric streptavidin variant mSA2. The test is described as follows: apparent Kd (Kd,app); fluorescent binding curve, labeled mSA2 in 50% urine, 4 h; quadratic fit.
For test [5] the target is unchanged. In words: fluorescent binding curve, labeled mSA2 in 50% blood serum, 4 h; quadratic fit.
Test [6] has the same target. In words: apparent Kd (Kd,app); fluorescent binding curve, labeled mSA2 in 50% blood serum, 4 h; quadratic fit.
Test [7] has the same target. In words: fluorescent binding curve, labeled mSA2 in 50% urine, 4 h; quadratic fit.
The target in test [8] is T1, streptavidin. The test is described as follows: apparent Kd (Kd,app); fluorescent binding curve, labeled SA in PBS, 0.5 h exposure; quadratic fit.
The target in test [9] is monomeric streptavidin variant mSA2. In words: fluorescent binding assay, labeled mSA2 in 50% blood serum on thin film, 4 h exposure. How it is done:
as §1, with “film. Films were incubated in a sealed chamber saturated with water vapor at room temperature to prevent to prevent drying of the applied fluorescent samples.” for “film.”
(§3) To evaluate how the apparent size-based diffusion properties translated to biosensing capabilities, binding curves were measured using SA and mSA2 solutions in buffer. Binding curves were fit with a quadratic model that is a function of three parameters: the average MFI per binding event a, the total concentration of binding sites [P]T, and the apparent dissociation constant K_{d,app} describing the binding equilibrium between analyte and binding sites within the thin film.

A further test addresses T2, BSA (bovine, UniProt P02769).
T2 construct: full protein, fluorescently labeled; non-specific retention control; also called BSA labeled with Alexa Fluor 488
The test is described as follows: fluorescence of Alexa Fluor 488-labeled BSA retained in a 144 nm 3xSP77.6k thin film after rinsing with water for 0-30 s.

The target in test [10] is T1, streptavidin. The test is described as follows: fluorescent binding curve, labeled SA in 50% blood serum, 4 h; quadratic fit.
For test [11], the target named is T1, streptavidin. The test is described as follows: sandwich assay: SA in 50% urine, biotin-HRP/TMB detection. The procedure: (§4) Each well was submerged in 1 mL of 1% BSA in Milli-Q water, and the 12-well plate was incubated at 37° C. for 30 minutes. The wells were rinsed twice by adding 2 mL of Milli-Q water and gently shaking the well plate at 70 rpm for 5 minutes. 1 mL of streptavidin diluted in PBS, urine, or blood serum (prepared as described in the Fluorescent Assays section) containing 0.1% BSA was then added to each well, and the well plate was shaken at 70 rpm for 4 hours at room temperature. Wells were rinsed twice with 2 mL of Milli-Q water then twice with 2 mL of 0.1% BSA in Milli-Q water by shaking at 70 rpm for 5 minutes. After rinsing, wells were submerged in 1 mL of 200 ng/mL biotin-HRP in Milli-Q water containing 0.1% BSA, and the well plate was shaken at 70 rpm for 1 hour at room temperature. Wells were then rinsed with water and 0.1% BSA as described previously. 1 mL of solution from a Pierce TMB substrate kit (Thermo Fisher Scientific) was added to each well, and the well plate was shaken vigorously at 125 rpm for 15 minutes at room temperature. 1 mL of 2M H2SO4 was added to each well, and the absorbance at 450 nm was read using a Tecan Infinite M200 PRO plate reader.
(§5) The general procedure for this proof-of-concept experiment is diagrammed in FIG. 28. Films were first exposed to SA solutions and rinsed to remove unbound analyte. Taking advantage of the strong interaction between SA and biotin, thin films were then submerged in a solution of biotinylated horseradish peroxidase (biotin-HRP). Bound SA was detected colorimetrically through the HRP-mediated oxidation of 3,3′,5,5′-tetramethylbenzidine (TMB). Attempts to perform this assay using mSA2 as the analyte were unsuccessful, even when run on an rcSso7d.SA monolayer.

The target of test [12] is T1, streptavidin. The test is described as follows: apparent Kd (Kd,app); fluorescent binding curve, labeled SA in PBS, 4 h exposure; quadratic fit.
Test [13] deals with T1, streptavidin. In words: sandwich assay, SA in PBS, detection with biotin-HRP and TMB, absorbance at 450 nm. The procedure:
as §4
The general procedure for this proof-of-concept experiment is diagrammed in FIG. 28. […] Bound SA was detected colorimetrically through the HRP-mediated oxidation of 3,3′,5,5′-tetramethylbenzidine (TMB). […]

For test [14], the target named is T1, streptavidin. The test is described as follows: fluorescent binding assay, labeled SA in 50% blood serum on thin film, 4 h exposure.
Test [15] addresses T1, streptavidin. The test is described as follows: apparent Kd (Kd,app); fluorescent binding curve, labeled SA in 50% urine, 4 h; quadratic fit.
The target of test [16] is monomeric streptavidin variant mSA2. In words: fluorescent binding curves, labeled mSA2 in 50% urine or 50% blood serum, 4 h.
For test [17], the target named is T1, streptavidin. The test is described as follows: apparent Kd (Kd,app); fluorescent binding curve, labeled SA in PBS, 8 h exposure; quadratic fit.
Test [18] deals with T1, streptavidin. In words: apparent Kd (Kd,app); fluorescent binding curve, labeled SA in 50% blood serum, 4 h; quadratic fit.
For test [19], the target named is T1, streptavidin. In words: sandwich assay: SA in 50% blood serum, biotin-HRP/TMB detection. How it is done:
as §4, §5

Test [20] has as its target T1, streptavidin. The test is described as follows: fluorescent binding assay, labeled SA in 50% urine on thin film, 4 h exposure.
The target in test [21] is T1, streptavidin. The test is described as follows: fluorescent binding curve, labeled SA in PBS, 4 h exposure; quadratic fit.
Test [22] concerns the target T1, streptavidin. In words: sandwich assay, SA in 50% blood serum, detection with biotin-HRP and TMB. How it is done: as §4, §5
Test [23] deals with monomeric streptavidin variant mSA2. In words: fluorescent binding assay, labeled mSA2 in 50% urine on thin film, 4 h exposure. How it is done:
as §1, with “film. Films were incubated in a sealed chamber saturated with water vapor at room temperature to prevent to prevent drying of the applied fluorescent samples.” for “film.”
as §3

The target is the same in test [24]. The test is described as follows: apparent Kd (Kd,app); fluorescent binding curve, labeled mSA2 in PBS, 4 h exposure; quadratic fit. The procedure: as §1, with “film. Films were incubated in a sealed chamber saturated with water vapor at room temperature to prevent to prevent drying of the applied fluorescent samples.” for “film.”
as §3

The target is the same in test [25]. The test is described as follows: fluorescent binding curve, labeled mSA2 in PBS, 4 h exposure; quadratic fit. The procedure:
as §1, with “film. Films were incubated in a sealed chamber saturated with water vapor at room temperature to prevent to prevent drying of the applied fluorescent samples.” for “film.”
as §3

Test [26] shares this target. The test is described as follows: apparent Kd (Kd,app); fluorescent binding curve, labeled mSA2 in PBS, 8 h exposure; quadratic fit. The procedure: as §1, §2
Test [27] shares this target. The test is described as follows: fluorescent binding curve, labeled mSA2 in PBS, 4 h exposure. How it is done:
as §1, §2

For test [28] the target is unchanged. In words: apparent Kd (Kd,app); fluorescent binding curve, labeled mSA2 in PBS, 0.5 h exposure; quadratic fit.
The target is the same in test [29]. In words: fluorescent binding curve fits, labeled mSA2 in PBS. The procedure: The binding function of rcSso7d.SA oligomer-PNIPAM thin films was measured using fluorescently-labeled monomeric streptavidin (mSA2) and fluorescently-labeled streptavidin (SA). Details for the expression, purification, and fluorescent labeling of mSA2 are provided below. Samples were prepared by serial dilution of SA or mSA2 in PBS (pH 7.4), human urine (diluted to 50% v/v in PBS, pH 7.4), or blood serum (obtained as the supernatant by centrifuging whole blood at 1500×g for 10 minutes, then diluted to 50% v/v in PBS, pH 7.4). […] After 1 hour, films were thoroughly rinsed with water for 10 seconds (a time determined to be sufficient to remove unbound molecules from the film, see FIG. 33, dried under filtered airflow, and immediately analyzed for fluorescent signal. Fluorescence microscopy images were acquired at 4× magnification using a Cy5 filter set and exposure time of 5000 ms on an Olympus IX-81 inverted fluorescence microscope with an AxioCam HRC CCD camera. Fluorescent intensity was calculated using ImageJ software⁶⁷ by determining the average fluorescent signal in a rectangular area of the fluorescent image free of defects and occupying no less than half of the full sample application area.
as §2

Test [30] has as its target T1, streptavidin. In words: fluorescent binding curve, labeled SA in PBS, 4 h exposure. How it is done: as §1, §2
The target of test [31] is T1, streptavidin. In words: fluorescent binding curve, labeled SA in PBS, 30 min exposure. How it is done:
as §1, §2

T1 sequence (P22629 37-163 limits assumed): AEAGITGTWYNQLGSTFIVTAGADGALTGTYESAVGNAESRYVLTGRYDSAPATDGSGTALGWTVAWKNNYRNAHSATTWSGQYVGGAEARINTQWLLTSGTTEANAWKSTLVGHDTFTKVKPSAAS
T2 sequence (P02769 25-607 limits assumed): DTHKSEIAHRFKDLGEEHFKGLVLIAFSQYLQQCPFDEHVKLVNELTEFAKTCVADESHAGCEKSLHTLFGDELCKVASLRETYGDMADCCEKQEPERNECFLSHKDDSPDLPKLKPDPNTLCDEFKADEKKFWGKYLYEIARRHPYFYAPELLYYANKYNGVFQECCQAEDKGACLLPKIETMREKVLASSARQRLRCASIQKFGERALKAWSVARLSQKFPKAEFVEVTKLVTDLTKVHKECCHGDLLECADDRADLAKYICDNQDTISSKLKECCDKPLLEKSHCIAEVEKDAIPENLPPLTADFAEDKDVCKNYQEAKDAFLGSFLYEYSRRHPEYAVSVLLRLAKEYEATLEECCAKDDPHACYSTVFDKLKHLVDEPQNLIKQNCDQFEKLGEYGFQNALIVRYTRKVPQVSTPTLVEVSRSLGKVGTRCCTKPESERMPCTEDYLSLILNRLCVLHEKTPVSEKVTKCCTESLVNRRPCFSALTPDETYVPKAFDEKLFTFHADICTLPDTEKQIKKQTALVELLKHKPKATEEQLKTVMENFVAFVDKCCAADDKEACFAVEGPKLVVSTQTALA

B1: 3xSP77.6k thin film (3x rcSso7d.SA-PNIPAM conjugate, PNIPAM Mn 77.6 kDa) (designed binder)
chain: MGSSHHHHHHSSGLVPRGSHMCATVKFTYQGEEKQVDISKIKIVARDGQYIDFKYDEGGGAYGYGWVSEKDAPKELLQMLEKQGGGGSGGGGSMATVKFTYQGEEKQVDISKIKIVARDGQYIDFKYDEGGGAYGYGWVSEKDAPKELLQMLEKQGGGGSGGGGSMATVKFTYQGEEKQVDISKIKIVARDGQYIDFKYDEGGGAYGYGWVSEKDAPKELLQMLEKQGG
modifications: maleimide end-functionalized PNIPAM (Mn 77.6 kDa) on the N-terminal Cys; film lightly crosslinked with glutaraldehyde
Take B1: the “reduction in LOD relative to rcSso7d.SA monolayer” value with streptavidin [1] is around 2 fold. For the same molecule, the “binding sites accessed relative to the 3×SP9.6k film” value with streptavidin [2] was around 4 fold. Besides, the “[P]T (total concentration of binding sites)” value with streptavidin [3] came to 0.3 nM; in test [5] it was 4.5 nM; in test [7], 15 nM; with streptavidin [10] it was 0.6 nM; in the test with streptavidin [21] it was 0.41 nM. For the same molecule, the Kd in test [4] is 31 µM; in [6], 35 µM; with streptavidin [8], 80 µM; with streptavidin [12], 17 µM; with streptavidin [15], 50 µM; in the test with streptavidin [17] it was 15 µM. The Kd in the test with streptavidin [18] was found to be 40 µM. Further, the “Limit of Detection” value worked out at 56 nM in [9], 420 nM in the test with streptavidin [14], 800 nM in the test with streptavidin [20] and 14 nM in [23]. Also, in the test with BSA, the binding result was “no binding (tested: 10 µM)”. The LOD was 33 nM in the test with streptavidin [11] and 85 nM in the test with streptavidin [19]. The entries for the “LOD relative to rcSso7d.SA monolayer” value (with streptavidin [13]; in test [16]; in the test with streptavidin [22]) were around 2 fold, 2 orders of magnitude lower and 2 fold, respectively.

B2: 3xSP56.1k thin film (3x rcSso7d.SA-PNIPAM conjugate, PNIPAM Mn 56.1 kDa) (designed binder)
chain: B1 chain
modifications: maleimide end-functionalized PNIPAM (Mn 56.1 kDa) on the N-terminal Cys; film lightly crosslinked with glutaraldehyde
As to B2, the results for the Kd in test [24], in [26] and in test [28] were 16 µM, 13 µM and 33 µM, respectively. Moreover, the “[P]T (total concentration of binding sites)” value in test [25] is 3.2 nM. The “reduction in LOD relative to rcSso7d.SA monolayer” value in [27] is around 4 fold. Also, the “accessible binding sites relative to the 3×SP9.6k film” value in test [29] was above 4 fold.

B3: 3xSP9.6k thin film (3x rcSso7d.SA-PNIPAM conjugate, PNIPAM Mn 9.6 kDa) (designed binder)
chain: B1 chain
modifications: maleimide end-functionalized PNIPAM (Mn 9.6 kDa) on the N-terminal Cys; film lightly crosslinked with glutaraldehyde
On to B3, for which the Kd is 3.7 µM in test [24]; 26 µM in test [4]; 12.2 µM in [6]; 60 µM in the test with streptavidin [8]; 40 µM in the test with streptavidin [12]; 30 µM with streptavidin [15]. Also, the Kd amounted to 11 µM in test [28] and 50 µM with streptavidin [18]. Besides, the “[P]T (total concentration of binding sites)” value is 0.7 nM in [25]; 0.26 nM with streptavidin [3]; 9.4 nM in test [5]; 17 nM in test [7]; 0.27 nM in the test with streptavidin [10]; 0.9 nM with streptavidin [21]. The “Limit of Detection” value was found to be 10.5 nM in test [9], 1700 nM with streptavidin [14], 1300 nM with streptavidin [20] and 9.8 nM in test [23]. Besides, the “reduction in LOD relative to rcSso7d.SA monolayer” value in test [27] was found to be 10 fold. Further, the LOD with streptavidin [11] amounted to 39 nM; with streptavidin [19], 87 nM. The “LOD relative to rcSso7d.SA monolayer” value in test [16] is 2 orders of magnitude lower; with streptavidin [22], 2 fold. Besides, the figures for the “sensitivity relative to rcSso7d.SA monolayer” value with streptavidin [30] and with streptavidin [31] were around 2 fold and above 10 fold, respectively.
